Values quoted from earlier work as cited in publication PMC8625536.

Target: Glu89 (UniProt position 105, IDALNENKVLV)
Details: Native folded protein; EF loop closed-to-open (Tanford) transition

For “beta-lactoglobulin (called BBL in the article) (Bos taurus)”, the pKa is listed as about 7.3.
